# Data: patent publication US20250084176A1 (F STAR BETA, published 2025)
# T1: human GITR (human, UniProt Q9Y5U5 26-161, limits assumed)
# T1 sequence (looked up): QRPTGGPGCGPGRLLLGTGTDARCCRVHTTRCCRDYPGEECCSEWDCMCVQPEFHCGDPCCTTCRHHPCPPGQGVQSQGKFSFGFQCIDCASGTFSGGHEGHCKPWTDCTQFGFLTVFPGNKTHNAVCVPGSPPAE
# T2: human OX40 (human, UniProt P43489 29-216, limits assumed)
# T2 sequence (looked up): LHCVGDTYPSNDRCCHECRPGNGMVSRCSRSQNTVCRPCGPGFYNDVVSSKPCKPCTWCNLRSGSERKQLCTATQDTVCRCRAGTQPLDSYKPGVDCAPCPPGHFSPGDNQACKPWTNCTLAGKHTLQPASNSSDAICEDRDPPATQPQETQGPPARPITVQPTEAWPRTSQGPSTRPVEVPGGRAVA
# Experiments:
# human CD40 = human CD40 (human, UniProt P25942 21-193); experiment: SPR (Biacore T200), receptor amine-coupled to CM5 chip
# Sequence of human CD40 (P25942 21-193 limits assumed): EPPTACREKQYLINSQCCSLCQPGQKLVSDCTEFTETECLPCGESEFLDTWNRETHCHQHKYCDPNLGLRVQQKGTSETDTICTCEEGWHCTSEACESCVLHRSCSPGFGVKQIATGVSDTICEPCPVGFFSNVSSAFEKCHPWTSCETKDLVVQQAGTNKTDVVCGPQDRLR
# Protocol: (§1) The specificity of the anti-human CD137 Fcabs for human CD137 compared to other related TNFSFR family members was tested. 8 of the Fcabs were tested in mock mAb² (HeID1.3) format and measured by SPR in a Biacore T200 (GE Healthcare) by testing for binding to other human TNFRSF receptors: CD40, OX40 and GITR. Amine coupling (amine coupling kit, GE Healthcare, BR-1000-50) was used to coat human CD40, GITR and OX40 to approximately 1000 RU in Biacore CM5 chips (GE Healthcare, cat no 29149603). […] The chip was regenerated by injection of 10 mM glycine pH 2.5 for 12 s at 30 μl/min. Antibodies specific to the different TNFRSF members were used as positive controls to verify Biacore chip coating. Data was double reference subtracted and analysed using BIAevaluation 3.2 software.
# human GITR = molecular target: T1, human GITR; experiment: as above
# Protocol: as §1
# human OX40 = molecular target: T2, human OX40; experiment: as above
# Protocol: as §1
# [1] = molecular target: human CD137, full length, on cells (human, UniProt Q07011 24-255); experiment: cell-based or functional assay
# Sequence of human CD137, full length, on cells (Q07011 24-255): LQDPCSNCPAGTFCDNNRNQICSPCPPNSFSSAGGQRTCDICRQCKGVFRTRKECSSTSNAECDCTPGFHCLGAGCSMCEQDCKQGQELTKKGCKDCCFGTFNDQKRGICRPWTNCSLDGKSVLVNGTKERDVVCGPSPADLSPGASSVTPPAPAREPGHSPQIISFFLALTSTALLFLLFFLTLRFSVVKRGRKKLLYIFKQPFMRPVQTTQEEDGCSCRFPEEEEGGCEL
# hCD137-mFc-Avi = molecular target: T3, hCD137-mFc-Avi (human; mouse, UniProt Q07011 24-186, one biotin on the Avi sequence of each monomer (BirA); unbiotinylated in the SPR of Example 5.6); experiment: flow cytometry of the yeast-displayed clone, 10 nM dimeric human antigen
# T3 construct: Made in-house in HEK293-6E; also called human CD137-mFc-Avi; dimeric human CD137; not shown: mouse IgG2a Fc domain (mIgG2a Fc)
# T3 sequence (Q07011 24-186): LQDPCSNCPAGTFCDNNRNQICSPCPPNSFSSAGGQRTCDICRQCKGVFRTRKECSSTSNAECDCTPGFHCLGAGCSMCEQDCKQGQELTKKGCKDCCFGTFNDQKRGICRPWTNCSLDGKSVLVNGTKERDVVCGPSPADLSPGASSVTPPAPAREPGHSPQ
Binder,% APC positive cells (hCD137-mFc-Avi),other results
"FS22-053-009/HelD1.3 (bispecific antibody, human IgG1, kappa, Mock mAb^2, IgG1 without LALA; also called FS22-053-009/HeID1.3) heavy: QVQLQESGPGLVRPSQTLSLTCTVSGSTFSGYGVNWVRQPPGRGLEWIGMIWGDGNTDYNSALKSRVTMLVDTSKNQFSLRLSSVTAADTAVYYCARERDYRLDYWGQGSLVTVSSASTKGPSVFPLAPSSKSTSGGTAALGCLVKDYFPEPVTVSWNSGALTSGVHTFPAVLQSSGLYSLSSVVTVPSSSLGTQTYICNVNHKPSNTKVDKKVEPKSCDKTHTCPPCPAPELLGGPSVFLFPPKPKDTLMISRTPEVTCVVVDVSHEDPEVKFNWYVDGVEVHNAKTKPREEQYNSTYRVVSVLTVLHQDWLNGKEYKCKVSNKALPAPIEKTISKAKGQPREPQVYTLPPSRDELNPPYLFSNQVSLTCLVKGFYPSDIAVEWESNGQPENNYKTTPPVLDSDGSFFLYSKLTVEHTRWLDGNVFSCSVMHEALHNHYTQKSLSLSPG light: DIQMTQSPASLSASVGETVTITCRASGNIHNYLAWYQQKQGKSPQLLVYNAKTLADGVPSRFSGSGSGTQYSLKINSLQPEDFGSYYCQHFWSTPRTFGGGTKLEIKRTVAAPSVFIFPPSDEQLKSGTASVVCLLNNFYPREAKVQWKVDNALQSGNSQESVTEQDSKDSTYSLSSTLTLSKADYEKHKVYACEVTHQGLSSPVTKSFNRGEC",,"binding result (human CD40): no binding (tested: starting at 1 µM); binding result (human GITR): no binding (tested: starting at 1 µM); binding result (human OX40): no binding (tested: starting at 1 µM); NF-kB signalling, HEK.FRT.luc.hCD137, +XL (EC50 nM) [1]: 64.6 nM"
"FS22-172-006/HelD1.3 (bispecific antibody, human IgG1, kappa) heavy: QVQLQESGPGLVRPSQTLSLTCTVSGSTFSGYGVNWVRQPPGRGLEWIGMIWGDGNTDYNSALKSRVTMLVDTSKNQFSLRLSSVTAADTAVYYCARERDYRLDYWGQGSLVTVSSASTKGPSVFPLAPSSKSTSGGTAALGCLVKDYFPEPVTVSWNSGALTSGVHTFPAVLQSSGLYSLSSVVTVPSSSLGTQTYICNVNHKPSNTKVDKKVEPKSCDKTHTCPPCPAPELLGGPSVFLFPPKPKDTLMISRTPEVTCVVVDVSHEDPEVKFNWYVDGVEVHNAKTKPREEQYNSTYRVVSVLTVLHQDWLNGKEYKCKVSNKALPAPIEKTISKAKGQPREPQVYTLPPSRDELRKYYPPYNQLSLTCLVKGFYPSDIAVEWESNGQPENNYKTTPPVLDSDGSFFLYSKLTVGADRWLEGNVFSCSVMHEALHNHYTQKSLSLSPG light: DIQMTQSPASLSASVGETVTITCRASGNIHNYLAWYQQKQGKSPQLLVYNAKTLADGVPSRFSGSGSGTQYSLKINSLQPEDFGSYYCQHFWSTPRTFGGGTKLEIKRTVAAPSVFIFPPSDEQLKSGTASVVCLLNNFYPREAKVQWKVDNALQSGNSQESVTEQDSKDSTYSLSSTLTLSKADYEKHKVYACEVTHQGLSSPVTKSFNRGEC",,"NF-kB signalling, HEK.FRT.luc.hCD137, +XL (EC50 nM) [1]: 382 nM"
"FS22-172-002/HelD1.3 (bispecific antibody, human IgG1, kappa) heavy: QVQLQESGPGLVRPSQTLSLTCTVSGSTFSGYGVNWVRQPPGRGLEWIGMIWGDGNTDYNSALKSRVTMLVDTSKNQFSLRLSSVTAADTAVYYCARERDYRLDYWGQGSLVTVSSASTKGPSVFPLAPSSKSTSGGTAALGCLVKDYFPEPVTVSWNSGALTSGVHTFPAVLQSSGLYSLSSVVTVPSSSLGTQTYICNVNHKPSNTKVDKKVEPKSCDKTHTCPPCPAPELLGGPSVFLFPPKPKDTLMISRTPEVTCVVVDVSHEDPEVKFNWYVDGVEVHNAKTKPREEQYNSTYRVVSVLTVLHQDWLNGKEYKCKVSNKALPAPIEKTISKAKGQPREPQVYTLPPSRDELPFQMPPYNQVSLTCLVKGFYPSDIAVEWESNGQPENNYKTTPPVLDSDGSFFLYSKLTVGADRWLEGNVFSCSVMHEALHNHYTQKSLSLSPG light: DIQMTQSPASLSASVGETVTITCRASGNIHNYLAWYQQKQGKSPQLLVYNAKTLADGVPSRFSGSGSGTQYSLKINSLQPEDFGSYYCQHFWSTPRTFGGGTKLEIKRTVAAPSVFIFPPSDEQLKSGTASVVCLLNNFYPREAKVQWKVDNALQSGNSQESVTEQDSKDSTYSLSSTLTLSKADYEKHKVYACEVTHQGLSSPVTKSFNRGEC",,"NF-kB signalling, HEK.FRT.luc.hCD137, +XL (EC50 nM) [1]: 124 nM"
"FS22-053-010/HelD1.3 (bispecific antibody, human IgG1, kappa, Mock mAb^2, IgG1 without LALA; also called FS22-053-010/HeID1.3) heavy: QVQLQESGPGLVRPSQTLSLTCTVSGSTFSGYGVNWVRQPPGRGLEWIGMIWGDGNTDYNSALKSRVTMLVDTSKNQFSLRLSSVTAADTAVYYCARERDYRLDYWGQGSLVTVSSASTKGPSVFPLAPSSKSTSGGTAALGCLVKDYFPEPVTVSWNSGALTSGVHTFPAVLQSSGLYSLSSVVTVPSSSLGTQTYICNVNHKPSNTKVDKKVEPKSCDKTHTCPPCPAPELLGGPSVFLFPPKPKDTLMISRTPEVTCVVVDVSHEDPEVKFNWYVDGVEVHNAKTKPREEQYNSTYRVVSVLTVLHQDWLNGKEYKCKVSNKALPAPIEKTISKAKGQPREPQVYTLPPSRDELNPPYLFSNQVSLTCLVKGFYPSDIAVEWESNGQPENNYKTTPPVLDSDGSFFLYSKLTVDYMRWLDGNVFSCSVMHEALHNHYTQKSLSLSPG light: DIQMTQSPASLSASVGETVTITCRASGNIHNYLAWYQQKQGKSPQLLVYNAKTLADGVPSRFSGSGSGTQYSLKINSLQPEDFGSYYCQHFWSTPRTFGGGTKLEIKRTVAAPSVFIFPPSDEQLKSGTASVVCLLNNFYPREAKVQWKVDNALQSGNSQESVTEQDSKDSTYSLSSTLTLSKADYEKHKVYACEVTHQGLSSPVTKSFNRGEC",,"binding result (human CD40): no binding (tested: starting at 1 µM); binding result (human GITR): no binding (tested: starting at 1 µM); binding result (human OX40): no binding (tested: starting at 1 µM); NF-kB signalling, HEK.FRT.luc.hCD137, +XL (EC50 nM) [1]: 47.5 nM"
"FS22-172-004, yeast-displayed clone (designed binder) GQPREPQVYTLPPSRDELNYIYPPYNQVSLTCLVKGFYPSDIAVEWESNGQPENNYKTTPPVLDSDGSFFLYSKLTVGADRWLEGNVFSCSVMHEALHNHYTQKSLSLSPG",> 10%,
"FS22-053-011, yeast-displayed clone (designed binder) GQPREPQVYTLPPSRDELNPPYLFSNQVSLTCLVKGFYPSDIAVEWESNGQPENNYKTTPPVLDSDGSFFLYSKLTVDYWRWTDGNVFSCSVMHEALHNHYTQKSLSLSPG",> 30%,
"FS22-053-009, yeast-displayed clone (designed binder) GQPREPQVYTLPPSRDELNPPYLFSNQVSLTCLVKGFYPSDIAVEWESNGQPENNYKTTPPVLDSDGSFFLYSKLTVEHTRWLDGNVFSCSVMHEALHNHYTQKSLSLSPG",> 30%,
"FS22-053-008, yeast-displayed clone (designed binder) GQPREPQVYTLPPSRDELNPPYLFSNQVSLTCLVKGFYPSDIAVEWESNGQPENNYKTTPPVLDSDGSFFLYSKLTVDYWRWLEGNVFSCSVMHEALHNHYTQKSLSLSPG",> 30%,
"FS22-172-001, yeast-displayed clone (designed binder) GQPREPQVYTLPPSRDELPFVMPPYNQVSLTCLVKGFYPSDIAVEWESNGQPENNYKTTPPVLDSDGSFFLYSKLTVGADRWLEGNVFSCSVMHEALHNHYTQKSLSLSPG",> 10%,
"FS22-172-005, yeast-displayed clone (designed binder) GQPREPQVYTLPPSRDELQQVYPPYNQVSLTCLVKGFYPSDIAVEWESNGQPENNYKTTPPVLDSDGSFFLYSKLTVGADRWLEGNVFSCSVMHEALHNHYTQKSLSLSPG",> 10%,
"FS22-053-012, yeast-displayed clone (designed binder) GQPREPQVYTLPPSRDELNPPYLFSNQVSLTCLVKGFYPSDIAVEWESNGQPENNYKTTPPVLDSDGSFFLYSKLTVDHMRWLEGNVFSCSVMHEALHNHYTQKSLSLSPG",> 30%,
"FS22-172-006, yeast-displayed clone (designed binder) GQPREPQVYTLPPSRDELRKYYPPYNQLSLTCLVKGFYPSDIAVEWESNGQPENNYKTTPPVLDSDGSFFLYSKLTVGADRWLEGNVFSCSVMHEALHNHYTQKSLSLSPG",> 10%,
"FS22-053-010, yeast-displayed clone (designed binder) GQPREPQVYTLPPSRDELNPPYLFSNQVSLTCLVKGFYPSDIAVEWESNGQPENNYKTTPPVLDSDGSFFLYSKLTVDYMRWLDGNVFSCSVMHEALHNHYTQKSLSLSPG",> 30%,
"FS22-172-002, yeast-displayed clone (designed binder) GQPREPQVYTLPPSRDELPFQMPPYNQVSLTCLVKGFYPSDIAVEWESNGQPENNYKTTPPVLDSDGSFFLYSKLTVGADRWLEGNVFSCSVMHEALHNHYTQKSLSLSPG",> 10%,
"FS22-172-003, yeast-displayed clone (designed binder) GQPREPQVYTLPPSRDELPYIIPPYNQVSLTCLVKGFYPSDIAVEWESNGQPENNYKTTPPVLDSDGSFFLYSKLTVGADRWLEGNVFSCSVMHEALHNHYTQKSLSLSPG",> 10%,
